Experimental data: PMC2756588

T1: Abp1, P15891
T1 sequence (P15891 535-592, looked up): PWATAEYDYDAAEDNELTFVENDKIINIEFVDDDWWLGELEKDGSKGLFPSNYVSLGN

T2: Bbc1, P47068
T2 sequence (P47068 1-78, looked up): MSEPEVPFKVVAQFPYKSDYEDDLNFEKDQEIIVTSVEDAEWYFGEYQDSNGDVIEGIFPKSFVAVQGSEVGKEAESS

T3: Boi1, P38041
T3 sequence (P38041 1-86, looked up): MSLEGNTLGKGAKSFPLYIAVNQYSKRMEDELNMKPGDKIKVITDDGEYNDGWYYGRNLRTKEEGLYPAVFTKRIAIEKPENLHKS

T4: Boi2, P39969
T4 sequence (P39969 32-116, looked up): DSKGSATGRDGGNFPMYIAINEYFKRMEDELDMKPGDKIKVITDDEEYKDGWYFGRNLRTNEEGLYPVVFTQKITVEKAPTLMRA

T5: Bud14, P27637
T5 sequence (P27637 247-328, looked up): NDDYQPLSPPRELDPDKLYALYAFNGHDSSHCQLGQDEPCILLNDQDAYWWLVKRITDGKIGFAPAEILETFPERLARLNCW

T6: Bzz1-1, P38822
T6 sequence (P38822 478-572, looked up): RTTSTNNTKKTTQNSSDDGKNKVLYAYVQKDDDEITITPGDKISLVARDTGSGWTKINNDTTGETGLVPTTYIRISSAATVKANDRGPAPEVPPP

T7: Bzz1-2, P38822
T7 sequence (P38822 568-633, looked up): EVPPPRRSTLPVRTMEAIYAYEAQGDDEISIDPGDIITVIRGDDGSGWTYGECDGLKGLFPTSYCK

T8: Cdc25, P04821
T8 sequence (P04821 50-136, looked up): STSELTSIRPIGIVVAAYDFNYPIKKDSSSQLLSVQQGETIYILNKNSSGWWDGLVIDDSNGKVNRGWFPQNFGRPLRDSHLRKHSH

T9: Cyk3, Q07533
T9 sequence (Q07533 1-83, looked up): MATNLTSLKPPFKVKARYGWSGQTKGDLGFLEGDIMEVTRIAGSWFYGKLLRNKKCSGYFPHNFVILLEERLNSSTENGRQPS

T10: Fus1, P11710
T10 sequence (P11710 432-512, looked up): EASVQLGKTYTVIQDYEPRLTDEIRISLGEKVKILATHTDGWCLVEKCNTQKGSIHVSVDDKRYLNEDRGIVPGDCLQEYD

T11: Hof1, Q05080
T11 sequence (Q05080 590-669, looked up): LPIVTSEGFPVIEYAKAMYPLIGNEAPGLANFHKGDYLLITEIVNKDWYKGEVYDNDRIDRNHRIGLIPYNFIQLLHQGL

T12: Hse1, P38753
T12 sequence (P38753 208-285, looked up): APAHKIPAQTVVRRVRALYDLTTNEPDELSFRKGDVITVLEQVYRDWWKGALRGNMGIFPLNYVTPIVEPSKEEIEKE

T13: Lsb1, P53281
T13 sequence (P53281 45-122, looked up): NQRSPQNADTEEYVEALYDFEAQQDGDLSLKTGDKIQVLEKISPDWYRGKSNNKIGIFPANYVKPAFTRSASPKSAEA

T14: Lsb3, P43603
T14 sequence (P43603 385-451, looked up): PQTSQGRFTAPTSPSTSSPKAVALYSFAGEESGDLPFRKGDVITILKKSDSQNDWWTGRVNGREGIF

T15: Lsb4, P32793
T15 sequence (P32793 402-468, looked up): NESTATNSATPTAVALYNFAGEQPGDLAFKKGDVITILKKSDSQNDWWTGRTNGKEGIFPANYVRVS

T16: Myo5, Q04439
T16 sequence (Q04439 1072-1160, looked up): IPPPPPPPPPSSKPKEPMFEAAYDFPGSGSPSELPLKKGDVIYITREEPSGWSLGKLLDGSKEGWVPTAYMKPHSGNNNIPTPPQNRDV

T17: Nbp2, Q12163
T17 sequence (Q12163 103-180, looked up): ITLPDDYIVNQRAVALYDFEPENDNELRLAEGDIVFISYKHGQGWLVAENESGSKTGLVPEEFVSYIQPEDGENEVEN

T18: Pex13, P80667
T18 sequence (P80667 295-386, looked up): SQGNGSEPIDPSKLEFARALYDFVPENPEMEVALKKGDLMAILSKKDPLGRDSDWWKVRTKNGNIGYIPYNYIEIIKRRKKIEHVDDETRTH

T19: Pin3, Q06449
T19 sequence (Q06449 53-122, looked up): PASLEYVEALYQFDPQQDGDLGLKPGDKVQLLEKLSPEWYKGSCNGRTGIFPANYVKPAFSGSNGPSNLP

T20: Sla1-2, P32790
T20 sequence (P32790 60-140, looked up): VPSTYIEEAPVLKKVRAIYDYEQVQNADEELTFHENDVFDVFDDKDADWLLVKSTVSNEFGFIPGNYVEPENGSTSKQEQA

T21: Sla1-3, P32790
T21 sequence (P32790 344-424, looked up): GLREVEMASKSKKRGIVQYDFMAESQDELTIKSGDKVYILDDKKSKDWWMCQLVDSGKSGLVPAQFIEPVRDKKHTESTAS


biological target: T1, Abp1, P15891; test: SPOT array; conditions: median of control spots 935

SPOT intensity | Binder
133 | RRRRRPHRIERPLSN
134 | ALRRRLPVTRSKINW
224 | RSLRKRPTSPSISGS

biological target: T2, Bbc1, P47068; test: SPOT array; conditions: median of control spots 796

SPOT intensity | Binder
515 | RRRRRPHRIERPLSN
245 | ALRRRLPVTRSKINW
175 | RSLRKRPTSPSISGS

biological target: Bem1-1, P29366; test: SPOT array; conditions: median of control spots 4282
Sequence (P29366 55-141): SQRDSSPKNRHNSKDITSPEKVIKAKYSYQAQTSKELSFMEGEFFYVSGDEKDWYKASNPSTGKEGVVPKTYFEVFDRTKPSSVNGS

SPOT intensity | Binder
1 | RRRRRPHRIERPLSN
0 | ALRRRLPVTRSKINW
0 | RSLRKRPTSPSISGS

biological target: Bem1-2, P29366; test: SPOT array; conditions: median of control spots 4347
Sequence (P29366 139-227): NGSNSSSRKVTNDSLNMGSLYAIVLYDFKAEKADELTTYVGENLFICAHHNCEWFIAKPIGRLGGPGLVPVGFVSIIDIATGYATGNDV

SPOT intensity | Binder
5 | RRRRRPHRIERPLSN
7 | ALRRRLPVTRSKINW
5 | RSLRKRPTSPSISGS

biological target: T3, Boi1, P38041; test: SPOT array; conditions: median of control spots 1162

SPOT intensity | Binder
9 | RRRRRPHRIERPLSN
13 | ALRRRLPVTRSKINW
5 | RSLRKRPTSPSISGS

biological target: T4, Boi2, P39969; test: SPOT array; conditions: median of control spots 1161

SPOT intensity | Binder
0 | RRRRRPHRIERPLSN
1 | ALRRRLPVTRSKINW
0 | RSLRKRPTSPSISGS

biological target: T5, Bud14, P27637; test: SPOT array; conditions: median of control spots 956

SPOT intensity | Binder
24 | RRRRRPHRIERPLSN
6 | ALRRRLPVTRSKINW
22 | RSLRKRPTSPSISGS

biological target: T6, Bzz1-1, P38822; test: SPOT array; conditions: median of control spots 4446

SPOT intensity | Binder
2 | RRRRRPHRIERPLSN
0 | ALRRRLPVTRSKINW
0 | RSLRKRPTSPSISGS

biological target: T7, Bzz1-2, P38822; test: SPOT array; conditions: median of control spots 4538

SPOT intensity | Binder
5 | RRRRRPHRIERPLSN
7 | ALRRRLPVTRSKINW
21 | RSLRKRPTSPSISGS

biological target: T8, Cdc25, P04821; test: SPOT array; conditions: median of control spots 969

SPOT intensity | Binder
28 | RRRRRPHRIERPLSN
46 | ALRRRLPVTRSKINW
52 | RSLRKRPTSPSISGS

biological target: T9, Cyk3, Q07533; test: SPOT array; conditions: median of control spots 1451

SPOT intensity | Binder
5 | RRRRRPHRIERPLSN
2 | ALRRRLPVTRSKINW
1 | RSLRKRPTSPSISGS

biological target: T10, Fus1, P11710; test: SPOT array; conditions: median of control spots 1200

SPOT intensity | Binder
43 | RRRRRPHRIERPLSN
25 | ALRRRLPVTRSKINW
44 | RSLRKRPTSPSISGS

biological target: GST; test: SPOT array; conditions: median of control spots 978

SPOT intensity | Binder
1 | RRRRRPHRIERPLSN
2 | ALRRRLPVTRSKINW
3 | RSLRKRPTSPSISGS

biological target: T11, Hof1, Q05080; test: SPOT array; conditions: median of control spots 4086

SPOT intensity | Binder
4 | RRRRRPHRIERPLSN
14 | ALRRRLPVTRSKINW
13 | RSLRKRPTSPSISGS

biological target: T12, Hse1, P38753; test: SPOT array; conditions: median of control spots 1727

SPOT intensity | Binder
16 | RRRRRPHRIERPLSN
35 | ALRRRLPVTRSKINW
55 | RSLRKRPTSPSISGS

biological target: T13, Lsb1, P53281; test: SPOT array; conditions: median of control spots 388

SPOT intensity | Binder
0 | RRRRRPHRIERPLSN
46 | ALRRRLPVTRSKINW
26 | RSLRKRPTSPSISGS

biological target: T14, Lsb3, P43603; test: SPOT array; conditions: median of control spots 406

SPOT intensity | Binder
8 | RRRRRPHRIERPLSN
4 | ALRRRLPVTRSKINW
14 | RSLRKRPTSPSISGS

biological target: T15, Lsb4, P32793; test: SPOT array; conditions: median of control spots 397

SPOT intensity | Binder
6 | RRRRRPHRIERPLSN
7 | ALRRRLPVTRSKINW
5 | RSLRKRPTSPSISGS

biological target: Myo3, P36006; test: SPOT array; conditions: median of control spots 468

SPOT intensity | Binder
7 | RRRRRPHRIERPLSN
10 | ALRRRLPVTRSKINW
9 | RSLRKRPTSPSISGS

biological target: T16, Myo5, Q04439; test: SPOT array; conditions: median of control spots 471

SPOT intensity | Binder
1 | RRRRRPHRIERPLSN
0 | ALRRRLPVTRSKINW
2 | RSLRKRPTSPSISGS

biological target: T17, Nbp2, Q12163; test: SPOT array; conditions: median of control spots 357

SPOT intensity | Binder
74 | RRRRRPHRIERPLSN
149 | ALRRRLPVTRSKINW
198 | RSLRKRPTSPSISGS

biological target: T18, Pex13, P80667; test: SPOT array; conditions: median of control spots 1341

SPOT intensity | Binder
2 | RRRRRPHRIERPLSN
4 | ALRRRLPVTRSKINW
5 | RSLRKRPTSPSISGS

biological target: T19, Pin3, Q06449; test: SPOT array; conditions: median of control spots 2171

SPOT intensity | Binder
1 | RRRRRPHRIERPLSN
10 | ALRRRLPVTRSKINW
8 | RSLRKRPTSPSISGS

biological target: Rvs167, P39743; test: SPOT array; conditions: median of control spots 2707
Sequence (P39743 419-482): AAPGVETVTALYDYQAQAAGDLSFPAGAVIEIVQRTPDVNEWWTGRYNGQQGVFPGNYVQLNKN

SPOT intensity | Binder
4 | RRRRRPHRIERPLSN
8 | ALRRRLPVTRSKINW
2 | RSLRKRPTSPSISGS

biological target: Sho1, P40073; test: SPOT array; conditions: median of control spots 1148
Sequence (P40073 287-367): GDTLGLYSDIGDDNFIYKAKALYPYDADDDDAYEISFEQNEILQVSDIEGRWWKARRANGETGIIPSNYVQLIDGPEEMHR

SPOT intensity | Binder
270 | RRRRRPHRIERPLSN
196 | ALRRRLPVTRSKINW
295 | RSLRKRPTSPSISGS

biological target: T20, Sla1-2, P32790; test: SPOT array; conditions: median of control spots 712

SPOT intensity | Binder
0 | RRRRRPHRIERPLSN
0 | ALRRRLPVTRSKINW
1 | RSLRKRPTSPSISGS

biological target: T21, Sla1-3, P32790; test: SPOT array; conditions: median of control spots 5475

SPOT intensity | Binder
25 | RRRRRPHRIERPLSN
73 | ALRRRLPVTRSKINW
44 | RSLRKRPTSPSISGS
